Assay results taken from publication doi:10.1101/2023.05.08.539884.
Where two headings read alike, the source gives them in different places.

Tests used:
UBR4_(4730-5183) (human) [1] = target: UBR4_(4730-5183) (human) (UniProt Q5T4S7); test: ITC
UBR4_(4730-5183) (human) [2] = target: UBR4_(4730-5183) (human) (UniProt Q5T4S7); test: ITC; remark: listed apart in the source

Chain of UBE2A (P49459 whole entry): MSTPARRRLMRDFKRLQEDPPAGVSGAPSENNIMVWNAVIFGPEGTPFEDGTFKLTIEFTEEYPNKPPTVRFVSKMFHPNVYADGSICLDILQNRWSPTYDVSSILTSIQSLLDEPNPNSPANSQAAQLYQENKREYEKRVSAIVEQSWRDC
Chain of UBR4_(4730-5183) (human) (Q5T4S7 4730-5183): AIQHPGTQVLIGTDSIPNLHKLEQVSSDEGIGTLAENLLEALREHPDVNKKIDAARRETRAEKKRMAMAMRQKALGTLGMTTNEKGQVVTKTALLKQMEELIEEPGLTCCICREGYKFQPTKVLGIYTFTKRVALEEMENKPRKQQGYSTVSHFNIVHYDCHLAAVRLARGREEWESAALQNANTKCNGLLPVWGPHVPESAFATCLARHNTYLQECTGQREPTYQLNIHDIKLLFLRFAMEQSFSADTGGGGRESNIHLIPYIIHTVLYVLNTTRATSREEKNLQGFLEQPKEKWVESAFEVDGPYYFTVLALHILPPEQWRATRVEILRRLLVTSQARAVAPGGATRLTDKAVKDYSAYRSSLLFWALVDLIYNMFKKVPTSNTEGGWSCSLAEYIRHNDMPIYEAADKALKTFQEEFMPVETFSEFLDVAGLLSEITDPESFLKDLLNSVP

stoichiometry N (UBR4_(4730-5183) (human) [1]): 1
dH (UBR4_(4730-5183) (human) [2]): -7.37 kcal/mol
stoichiometry N (UBR4_(4730-5183) (human) [2]): 0.904
Substance: UBE2A (from UniProt P49459 1-152) (enzyme)
